Data reported in article PMC5605520, “Ylehd, an epoxide hydrolase with promiscuous haloalkane dehalogenase activity from tropical marine yeast Yarrowia lipolytica is induced upon xenobiotic stress” (Scientific Reports, 2017).

Legend:
Ylehd = target: T1, Ylehd (Yarrowia lipolytica, UniProt Q6C598); assay: spectrophotometric residual epoxide assay, […] nm; type: biochemical; conditions: epoxide hydrolase activity; 50 mM Tris-sulphate, pH 8.0, 30 °C
T1 construct: gene YALI0_E19899g; full-length ORF in pET28a, His-tagged, E. coli BL21AI; 352 amino acids; 43 kDa monomer; likely dimer at pH 8.0 (EH), tetramer at pH 4.5 (HLD)

[1] = target: Ylehd (epoxide hydrolase with promiscuous haloalkane dehalogenase activity from Yarrowia lipolytica NCIM 3589) (Yarrowia lipolytica NCIM 3589); assay: SEC; Superdex S200 10/300GL equilibrated with 50 mM Tris-sulphate buffer pH 8.0; mass from calibration with proteins of known molecular mass
[2] = target: Ylehd (epoxide hydrolase with promiscuous haloalkane dehalogenase activity from Yarrowia lipolytica NCIM 3589) (Yarrowia lipolytica NCIM 3589); assay: SEC; Superdex S200 10/300GL equilibrated with 50 mM sodium acetate buffer pH 4.5; mass from calibration with proteins of known molecular mass

Row | Km (Ylehd) [µM] | stoichiometry N [1] | stoichiometry N [2] | Molecule
1 | 500 ± 45 |  |  | CCCCCCC1CO1 (stereo not drawn) [1,2-Epoxyoctane]
2 |  | 2 | 4 | Ylehd (epoxide hydrolase with promiscuous haloalkane dehalogenase activity from Yarrowia lipolytica NCIM 3589) (enzyme)
